Assay results reported in PMC3207290 (The Journal of Cell Biology, 2011).

Target: F-actin (polymerized rabbit muscle G-actin) (rabbit, UniProt P68135 1-377)
Test: co-sedimentation

B1: bovine GRK5-Flag (enzyme)
chain: MELENIVANTVLLKAREGGGGKRKGKSKKWKEILKFPHINQCEDLRRTIDRDYCSLCDKQPVGRLLFRQFCETRPGLESYIQFLDSVAEYEVTPDEKLGEKGKEIMTKYLTPKSPVFITQVGRDLVSQTEEKLLQKPCKELFSACVQSVHDYLRGEPFHEYLDSMYFDRFLQWKWLERQPVTKNTFRQYRVLGKGGFGEVCACQVRATGKMYACKRLEKKRIKKRKGESMALNEKQILEKVNSRFVVNLAYAYETKDALCLVLTIMNGGDLKFHIYNMGNPGFEEERALFYAAEILCGLEDLHHENIVYRDLKPENILLDDYGHIRISDLGLAVKIPEGDLIRGRVGTVGYMAPEVLNNQRYGLSPDYWGLGCLIYEMIEGQSPFRGRKEKVKREEVDRRVLETEEVYSHKFSEEAKSICKMLLTKDAKQRLGCQEEGAAEVKRHPFFRNMNFKRLEAGMLDPPFVPDPRAVYCKDVLDIEQFSTVKGVNLDHTDDDFYSKFSTGSVPIPWQSEMIETECFKELNVFGPHGTLSPDLNRSHPPEPPKKGLLQRLFKRQHQNNSKSSPNSKTSFNHHINSNHVSSNSTGSS
Kd: 809 ± 245 nM
